Legend:
Conditions in all cases: protein: recombinant; tags: MBP; label: 32P 5' end
[1] = target: T1, MBP-KLF4 full length (human, UniProt O43474-1 1-479); experiment: EMSA; EMSA: 10 mM Tris-HCl pH 7.5, 53 mM NaCl, 1 mM DTT, 0.01% NP40, 5% glycerol, protein inhibitors, RT 30 min; footprinting: 110 ng to 3 ug protein, RT 30 min, 0.3
[2] = target: T2, MBP-KLF4 DBD (human, UniProt O43474-1 375-479); experiment: as above
[3] = target: T3, MBP-KLF4 K409Q full length (human, UniProt O43474-1 1-479, K409Q); experiment: as above
[4] = target: MBP-KLF4 K409Q DBD (human, UniProt O43474-1 375-479, K409Q); experiment: EMSA; stronger than FGF3-201; EMSA: 10 mM Tris-HCl pH 7.5, 53 mM NaCl, 1 mM DTT, 0.01% NP40, 5% glycerol, protein inhibitors, RT 30 min; footprinting: 110 ng to 3 ug protein, RT 30 min, 0.3
[5] = target: T3, MBP-KLF4 K409Q full length; experiment: as above
[6] = target: T1, MBP-KLF4 full length; experiment: EMSA; same strong binding as TRH-122; EMSA: 10 mM Tris-HCl pH 7.5, 53 mM NaCl, 1 mM DTT, 0.01% NP40, 5% glycerol, protein inhibitors, RT 30 min; footprinting: 110 ng to 3 ug protein, RT 30 min, 0.3
[7] = target: T2, MBP-KLF4 DBD; experiment: as above

T2 sequence (O43474 409-513): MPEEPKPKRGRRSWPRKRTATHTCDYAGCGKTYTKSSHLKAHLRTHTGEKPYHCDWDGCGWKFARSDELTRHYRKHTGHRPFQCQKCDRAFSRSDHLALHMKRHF
T3 sequence (O43474 other isoform, or with tags, fused parts or gaps K409Q | K409Q K409Q): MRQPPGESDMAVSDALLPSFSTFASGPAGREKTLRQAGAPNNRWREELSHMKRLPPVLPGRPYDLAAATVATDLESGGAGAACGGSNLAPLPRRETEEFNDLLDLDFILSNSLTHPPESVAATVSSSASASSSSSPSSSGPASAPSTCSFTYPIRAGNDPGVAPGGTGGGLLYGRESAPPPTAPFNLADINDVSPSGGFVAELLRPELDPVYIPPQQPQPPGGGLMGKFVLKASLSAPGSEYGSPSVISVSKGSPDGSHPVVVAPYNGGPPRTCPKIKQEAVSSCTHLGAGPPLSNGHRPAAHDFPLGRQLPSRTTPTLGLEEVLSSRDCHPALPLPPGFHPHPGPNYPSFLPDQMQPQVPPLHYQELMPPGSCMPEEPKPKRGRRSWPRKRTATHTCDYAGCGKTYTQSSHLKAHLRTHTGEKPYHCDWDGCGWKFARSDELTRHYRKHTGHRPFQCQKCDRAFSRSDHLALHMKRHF
T1 sequence (O43474 other isoform, or with tags, fused parts or gaps): as the sequence (O43474 other isoform, or with tags, fused parts or gaps K409Q | K409Q K409Q) above, with Q409K counted along it
Chain of MBP-KLF4 K409Q DBD (O43474 409-513 K443Q): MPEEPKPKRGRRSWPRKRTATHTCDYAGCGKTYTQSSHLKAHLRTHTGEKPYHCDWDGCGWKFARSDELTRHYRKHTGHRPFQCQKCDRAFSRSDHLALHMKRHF

B1: TRH-122 (dsDNA)
DNA 1: GAGCAGGCGGGCGGGGTCCCGC
DNA 2: GCGGGACCCCGCCCGCCTGCTC
B1: binds [1]; binds [2]; binds [3].

B2: FGF3-201M (dsDNA)
DNA 1: CCTTTAATGGGTGTGTGTCAGC
DNA 2: GCTGACACACACCCATTAAAGG
B2: binds [4]; binds [5].

B3: TRH-122M (dsDNA)
DNA 1: GAGCAGGCGGGCGGGGCCCCGC
DNA 2: GCGGGGCCCCGCCCGCCTGCTC
B3: binds [6]; binds [7].

Reference: article PMC9391581, “Mutated KLF4(K409Q) in meningioma binds STRs and activates FGF3 gene expression”
